Laboratory results from patent US11421026B2, “Antibodies that bind human cannabinoid 1 (CB1) receptor” (BIRD ROCK BIO, Inc., priority 2015, dated 2022).
Residue numbers refer to the chain shown, from its start.

B1: PA2LR3-P4C6: phage-derived CB1 binding IgG clone (antibody, V domains shown)
VH: EVQLQQSGAELVRPGSSVKISCKASGYAFSYYWMNWVKQRPGQGLEWIGQIYPGDGDTNYNGKFKGKATLTADKSSSTAYMQLSSLTSEDSAVYFCARSHGNYFPYWGQGTLVTVSA
VL: DIVITQSPAIVSASLGERVTMTCTASSSVSSSYLHWYQQKPGSSPKLWIYSTSNLASGVPARFSGSGSGTSYSLTISSMEAEDAATYYCQQWSSYPLTFGAGTKLEIK
modifications: PA2LR3-P4C6 Heavy Chain Variable region; PA2LR3-P4C6 Light Chain Variable region
B2: PA2LR3-P4B5: anti-CB1 antibody; HC variable SEQ ID NO: 26, LC variable SEQ ID NO: 30 (antibody, V domains shown)
VH: B1 VH with N61S, K63R, M81I
VL: B1 VL with I4L, T5N, V11M, Q90H, W92Y, S93H, S94R, Y95S
modifications: PA2LR3- P4B5 Heavy chain variable region; PA2LR3- P4B5 Light chain variable region
B3: PA2LR3-P6B12: anti-CB1 antibody; HC variable SEQ ID NO: 50, LC variable SEQ ID NO: 54 (antibody, V domains shown)
VH: B1 VH with P105A
VL: B1 VL with D1Q, I4L, V11M, Q90H, W92Y, S93H, S94R, Y95S, T98A, I107L
modifications: PA2LR3-P6B12 Heavy chain variable region; PA2LR3-P6B12 Light chain variable region
B4: PA2LR3-P4B1: anti-CB1 antibody; HC variable SEQ ID NO: 42, LC variable SEQ ID NO: 46 (antibody, V domains shown)
VH: B1 VH with Y27F, Y31N, Y60F, K67R, T69I, K74I, S77N
VL: B1 VL with D1Q, I4L, V11M, Q90H, W92Y, S93H, S94R, Y95S, I107L
modifications: PA2LR3-P4B1 Heavy chain variable region; PA2LR3-P4B1 Light chain variable region
B5: PA2LR3-P5E7: phage-derived CB1 antibody clone (antibody, V domains shown)
VH: B1 VH with Y31N, Y60F, K67R, T69I, K74I, S77N
VL: DIVLTQSPTTMAASPGEKITITCSASSSISSNYLHWYQQKPGFSPKLLIYRTSTLASGVPARFSGSGSGTSYSLTISSMEAEDAATYYCHQYHRSPHTFGSGTKLEIK
modifications: PA2LR3-P5E7 Heavy Chain Variable region; PA2LR3-P5E7 Light Chain Variable region
notes: phage-derived CB1 antibody clone
B6: PA2LR3-P3F8: phage-derived CB1 antibody clone (antibody, V domains shown)
VH: B1 VH with Y31N, K63N
VL: B1 VL with I4L, V11M, I107L
modifications: PA2LR3-P3F8 Heavy Chain Variable Region; PA2LR3-P3F8 Light Chain Variable Region
notes: as for B5
B7: PA2LR3-P4G10: phage-derived CB1 binding IgG clone (antibody, V domains shown)
VH: B1 VH with S7F, P105A
VL: B1 VL with I4L, V11M, Y95N, I107L
modifications: PA2LR3-P4G10 Heavy Chain Variable region; PA2LR3-P4G10 Light Chain Variable region
B8: PA2LR3-P6G7: anti-CB1 antibody; HC variable SEQ ID NO: 58, LC variable SEQ ID NO: 62 (antibody, V domains shown)
VH: B1 VH with Y27F, Y31N, Y60F, K67R, T69I, K74I, S77N
VL: B1 VL with I4L, V11M, Q90H, W92H, S93H, S94R, Y95S, L97P, I107L
modifications: PA2LR3-P6G7 Heavy chain variable region; PA2LR3-P6G7 Light chain variable region
B9: PA2LR3-P3A8: phage-derived CB1 antibody clone (antibody, V domains shown)
VH: B1 VH with F64V, P105A
VL: B1 VL with I4M, V11M, Y95N, I107L
modifications: PA2LR3-P3A8 Heavy Chain Variable Region; PA2LR3-P3A8 Light Chain Variable Region
notes: as for B5
B10: 36E12B6C2 Fab: Fab of 36E12B6C2 (antibody, V domains shown)
VH: B1 VH with E1Q, A28E, E46Q, Q82H, S84T, H100G, Y103P, P105A, Y106F
VL: DIQMTQTSSSLSASLGDRVTFSCRASQDISNYLNWYQQKPDGTVKLLIYYTSRLHSGVTSRFRGSGSGTDYSLTISNLEQEDVATYFCQQGHTLPWSFGGGTKLEIK

Experiments:
[1] = tested on: CB1 receptor signaling, WIN55,212 induced ERK phosphorylation in Trex-CHO CB1 receptor cells; assay: ERK activation assay (western blot); assay type: cell-based, human; settings: 100 nM
Method: (§1) Two days before the experiment, Trex-CHO CB1 receptor cells were seeded at 500,000 cells/well into 6-well plates. 1 μg/mL tetracycline was used to induce CB1 receptor expression after 24 hours. Cells were serum starved for at least two hours before the experiment. […] Cell lysates were harvested and the level of ERK activation was determined by western blot. Anti-ERK and Anti-phospho-specific ERK antibodies were obtained from Cell Signaling Inc.
as §1, with “Trex-CHO CB1 receptor-expressing cells were” for “Trex-CHO CB1 receptor cells were”

[2] = molecular target: T1, CB1 surface expression (CB1 TRex-CHO / TRex-293 cells) (Homo sapiens, UniProt P21554); assay type: cell-based; settings: for effect on WIN55,212 induced CB1 receptor internalization: antibody 300 nM pre-treatment, 1 μM WIN55,212 1 hour; for CB1 receptor internalization induced by the substance alone: 1 hour
T1 construct: pcDNA4/TO native full length human CB1 receptor construct was transfected into tetracycline inducible system Trex-CHO and Trex-293 cells; expressed in transfected cells; tetracycline induced
T1 sequence (P21554 whole entry): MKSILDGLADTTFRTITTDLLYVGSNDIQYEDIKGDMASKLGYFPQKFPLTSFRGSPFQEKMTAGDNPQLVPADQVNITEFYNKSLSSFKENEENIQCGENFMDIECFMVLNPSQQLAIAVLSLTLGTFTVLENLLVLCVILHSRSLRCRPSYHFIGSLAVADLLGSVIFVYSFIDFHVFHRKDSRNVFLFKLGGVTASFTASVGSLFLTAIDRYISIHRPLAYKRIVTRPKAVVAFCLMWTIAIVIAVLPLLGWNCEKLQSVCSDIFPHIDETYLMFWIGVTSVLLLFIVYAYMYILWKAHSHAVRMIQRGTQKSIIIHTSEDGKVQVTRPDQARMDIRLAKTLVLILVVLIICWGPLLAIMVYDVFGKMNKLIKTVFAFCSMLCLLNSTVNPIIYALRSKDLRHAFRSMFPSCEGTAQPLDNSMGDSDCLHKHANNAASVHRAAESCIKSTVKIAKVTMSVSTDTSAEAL
Method: 5×10^5 cells/well stably expressing CB1 TRex-CHO cells were seeded in a 6-well plate. Tetracycline (1 μg/ml) was added to culture medium for 24 hours to induce CB1 expression. On the day of the experiment, cells were serum starved for 2 hours. Cells were then pre-incubated with CB1 antibody (300 nM), AM6545 (CB1 neutral antagonist) and negative control (BRIL binder) for half an hour. […] Surface expression of CB1 was stained with anti-CB1 N-terminus mouse monoclonal antibody from R&D and the mean fluorescence intensity (MFI) was determined using flow cytometry.
The impact of CB1 antibody on receptor internalization was also investigated. […] Cells were harvested and stained with anti-CB1 N-terminus mouse monoclonal antibody (R&D).
On the day of the experiment, cells were serum starved for 2 hours. Cells were then pre-incubated with CB1 antibody (300 nM), AM6545 (CB1 neutral antagonist) and negative control (BRIL binder) for half an hour. […] Surface expression of CB1 was stained with anti-CB1 N-terminus mouse monoclonal antibody from R&D and the mean fluorescence intensity (MFI) was determined using flow cytometry (Guava).

[3] = molecular target: T2, human CB1 expressing TRex-CHO cells (Homo sapiens, UniProt P21554); assay type: cell-based; settings: forskolin stimulated TRex-CHO CB1 cells
T2 construct: pcDNA4/TO native full length human CB1 receptor construct was transfected into tetracycline inducible system Trex-CHO and Trex-293 cells; expressed in transfected cells
T2 sequence (P21554 whole entry): as above
Method: Data analysis was performed using GraphPad Prism software.
Data analysis was performed using GraphPad Prism.

[4] = molecular target: A138 iCAPS (human CB1, ICL3 replaced with protein 1 sequence); assay: ELISA binding of IgG/Fab to CB1 iCAPS A138; settings: IgG and Fab ELISA, Table 8
Method: (§2) Purified IgG was tested for binding to purified CB1 receptor (CB1 Conformation Antigen Presenting System (iCAPS)) by ELISA. Non-biotinylated antigens (e.g. empty iCAPS) were coated directly on Maxisorp plates. The primary antibodies were purified IgGs with 1:3 serial dilutions, incubated on the plate for 1 hour. After 3 rounds of washing with PBST, secondary antibodies HRP goat anti-mouse IgG (Abmart) or HRP goat anti-human IgG (Sigma), depending on the species of the IgGs were added and incubated for another hour. The plates were washed three times with PBST, then developed with TMB (Biopanda). HCl was added to the plates to stop the reaction. Absorbance at 450 nm was read on Emax precision microplate reader (Molecular Devices).
(§3) IgG and Fab molecules tested were 36E12B6C2 IgG, 36E12B6C2 Fab, PA13R3-P1C4 IgG, and PA13R3-P1C4 Fab, compared to negative control BRIL binder P1F7 IgG and P1F7 Fab. For IgG antibodies, the secondary antibody used to detect binding was anti-mouse IgG-HRP; for Fabs, the secondary antibody used to detect binding was anti-human IgG-HRP.

[5] = molecular target: A139 iCAPS (human CB1, ICL3 replaced with BRIL); assay: ELISA binding of IgG/Fab to CB1 iCAPS A139; settings: IgG and Fab ELISA, Table 8
Method: as §2, §3

Molecule | effect on WIN55,212 induced CB1 receptor internalization [2] | CB1 receptor internalization induced by the substance alone [2] | other results
Cc1c(C(=O)c2cccc3ccccc23)c2cccc3c2n1[C@H](CN1CCOCC1)CO3 [WIN55,212, reference compound] |  |  | ERK activation by agonist [1]: induced ERK activation
Cc1c(C(=O)NN2CCS(=O)(=O)CC2)nn(-c2ccc(Cl)cc2Cl)c1-c1ccc(C#CCCC#N)cc1 [AM6545, reference compound] | blocked |  | effect on cAMP levels without exogenous agonist / mechanism [3]: did not affect cAMP levels
B1 | do not block | do not induce | 
B2 | do not block | do not induce | 
B3 | do not block | do not induce | 
B4 | do not block | do not induce | 
B5 | do not block | do not induce | 
B6 | do not block | do not induce | 
B7 | do not block | do not induce | 
B8 | do not block | do not induce | 
B9 | do not block | do not induce | 
B10 |  |  | EC50 [4]: 1.02 nM; EC50 [5]: 0.805 nM
